Data from publication PMC11926106.
Values joined by “and” are separate entries in the source; they are usually repeats but may differ in a detail not shown here. Equal values may be shown once.

What was measured:
[1] = target: glycinin (soybean); assay: mass photometry; label-free glycinin 0.48 µg/mL adsorbed on a supported lipid bilayer of DOPC, 20 mM NaCl, 5 min incubation; oligomers counted among the membrane-adsorbed particles
[2] = target: glycinin (soybean); assay: mass photometry; label-free glycinin 0.48 µg/mL adsorbed on a supported lipid bilayer of DOPC, 365 mM NaCl, 5 min incubation; oligomers counted among the membrane-adsorbed particles

Sequence of glycinin (P04776 20-495): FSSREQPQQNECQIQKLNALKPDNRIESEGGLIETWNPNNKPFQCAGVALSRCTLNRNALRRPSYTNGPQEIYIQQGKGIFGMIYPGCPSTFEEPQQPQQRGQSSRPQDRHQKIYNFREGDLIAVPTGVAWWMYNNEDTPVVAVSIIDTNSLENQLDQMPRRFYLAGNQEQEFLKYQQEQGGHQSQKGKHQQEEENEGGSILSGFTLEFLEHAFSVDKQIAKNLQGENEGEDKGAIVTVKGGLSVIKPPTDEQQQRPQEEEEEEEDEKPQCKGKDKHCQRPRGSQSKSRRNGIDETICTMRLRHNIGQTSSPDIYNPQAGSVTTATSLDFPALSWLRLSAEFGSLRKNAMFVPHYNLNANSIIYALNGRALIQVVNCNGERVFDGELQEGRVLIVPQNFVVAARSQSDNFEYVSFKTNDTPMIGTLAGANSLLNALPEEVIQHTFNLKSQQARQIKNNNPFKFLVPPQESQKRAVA

- stoichiometry N [1]: 3 and 6
- stoichiometry N [2]: 9
Substance: glycinin (natural protein)
